Experimental data: the RNAGym collection of RNA variant scans (doi:10.7554/elife.80360)

B1: Twister Ribozyme (parent)
chain: AACACUGCCAAUGCCGGUCCCAAGCCCGGAUAAAAGUGGAGGGGGCGG

Variants of: B1
Assay: self-cleavage, relative activity (ratio to wild type); higher = more cleavage; co-transcriptional

For AUCACUGCCAAUGCCGGUCCCAGGCCCGGAUAAAAGUGGAGGGGGCGG, which self-cleavage is on record?
Its self-cleavage is 0.0976.

For AUCACUGGCAAUGCCGGUCCCAAGCCCGGAUAAAAGUGGAGGGGGCGG, which self-cleavage is on record?
Its self-cleavage is 0.0705.

Which self-cleavage does the source give for AUCACUGUCAAUGCCGGUCCCAAGCCCGGAUAAAAGUGGAGGGGGCGG here?
Its self-cleavage is 0.109.

For AUCACUGCCAAUGCCGGUCCCAAGCCCGGAUAUAAGUGGAGGGGGCGG, which self-cleavage is on record?
Its self-cleavage is 0.655.

Which self-cleavage does the source give for AUCACUGCCAAUGCCGGUCCCAAGCCCGGAUACAAGUGGAGGGGGCGG here?
Its self-cleavage is 0.457.

Which self-cleavage does the source give for AUCACUGCCAAUGCGGGUCCCAAGCCCGGAUAAAAGUGGAGGGGGCGG here?
Its self-cleavage is 0.0661.

With AUCACUGCCAAUGCAGGUCCCAAGCCCGGAUAAAAGUGGAGGGGGCGG as the variant, how does the self-cleavage read?
Its self-cleavage is 0.194.

For AGCACUGCCAAUGCCGGUCCCAAGCCCGGAUAAAAGUGGAUGGGGCGG, which self-cleavage is on record?
The self-cleavage was 0.0697.

With AGCACUGCCAAUGCCGGUCCCAAGCCCGGAUAAAAGUGGAAGGGGCGG as the variant, how does the self-cleavage read?
The self-cleavage was 0.102.

Which self-cleavage does the source give for AGCACUGCCAAUGCCGGUCCCAAGCCCGGAUAAAAGUGGAGAGGGCGG here?
The self-cleavage was 0.148.

For AUCACUGCCAAUGACGGUCCCAAGCCCGGAUAAAAGUGGAGGGGGCGG, which self-cleavage is on record?
The self-cleavage was 0.531.

For AGCACUGCCAAUGCCGGGCCCAAGCCCGGAUAAAAGUGGAGGGGGCGG, which self-cleavage is on record?
Its self-cleavage is 0.0967.

For AGCACUGCCAAUGCCGGACCCAAGCCCGGAUAAAAGUGGAGGGGGCGG, which self-cleavage is on record?
The self-cleavage was 0.123.

For AGCACUGCCAAUGCCGGUCCCAAGCCCGGAUAAAAGUGGAGGGGGCGU, which self-cleavage is on record?
Its self-cleavage is 0.255.

Which self-cleavage does the source give for AGCACUGCCAAUGCCGGUCCCAAGCCCGGAUAAAAGUGGAGGGGGCGC here?
The self-cleavage was 0.389.

Which self-cleavage does the source give for AUCACUGCCAAUGCCGGUCCCAAGCCCGGAUUAAAGUGGAGGGGGCGG here?
The self-cleavage was 0.722.

With AUCACUGCCAAUGCCGGUCCCAAGCCCGGAUAAAAGUGGAGGGGGCGG as the variant, how does the self-cleavage read?
The self-cleavage was 0.738.

For AUCACUGCCCAUGCCGGUCCCAAGCCCGGAUAAAAGUGGAGGGGGCGG, which self-cleavage is on record?
Its self-cleavage is 0.449.

With AUCACUGCCUAUGCCGGUCCCAAGCCCGGAUAAAAGUGGAGGGGGCGG as the variant, how does the self-cleavage read?
The self-cleavage was 0.604.

For AUCACUGCCAAUGCCGGUACCAAGCCCGGAUAAAAGUGGAGGGGGCGG, which self-cleavage is on record?
The self-cleavage was 0.129.

For AUCACUGCCAAUGCCGGUUCCAAGCCCGGAUAAAAGUGGAGGGGGCGG, which self-cleavage is on record?
The self-cleavage was 0.163.

Which self-cleavage does the source give for AUCACUGCCAAUGCCGGUCCCAAGCCCGGAUAAACGUGGAGGGGGCGG here?
Its self-cleavage is 0.745.

Which self-cleavage does the source give for AGCACUGCCAAUGCCGGUCCCAAGCCCGGAUAAAAGUGGAGGGGGCAG here?
Its self-cleavage is 0.232.

For AGCACUGCCAAUGCCGGUCCCAAGCCCGGAUAAAAGUGGAGGGGGCUG, which self-cleavage is on record?
The self-cleavage was 0.117.

With AUCACUGCCAAUGCCGGUCCCAAGCCCGGUUAAAAGUGGAGGGGGCGG as the variant, how does the self-cleavage read?
Its self-cleavage is 0.713.

Which self-cleavage does the source give for AGCACUGCCAAUGCCGGUCCCAAGCCCGGAUAAAAGUGGAGGUGGCGG here?
Its self-cleavage is 0.119.

Which self-cleavage does the source give for AGCACUGCCAAUGCCGGUCCCAAGCCCGGAUAAAAGUGGAGGAGGCGG here?
The self-cleavage was 0.104.

For AGCACUGCCAAUGCCGGUCCCAAGCCCGGAUAAAAGUGGAGGCGGCGG, which self-cleavage is on record?
The self-cleavage was 0.122.

For AUCACUGCAAAUGCCGGUCCCAAGCCCGGAUAAAAGUGGAGGGGGCGG, which self-cleavage is on record?
The self-cleavage was 0.0899.

Which self-cleavage does the source give for AUCACUGCUAAUGCCGGUCCCAAGCCCGGAUAAAAGUGGAGGGGGCGG here?
Its self-cleavage is 0.133.

For AGCACUGCCAAGGCCGGUCCCAAGCCCGGAUAAAAGUGGAGGGGGCGG, which self-cleavage is on record?
The self-cleavage was 0.252.

For AGCACUGCCAAAGCCGGUCCCAAGCCCGGAUAAAAGUGGAGGGGGCGG, which self-cleavage is on record?
The self-cleavage was 0.367.

Which self-cleavage does the source give for AUCAGUGCCAAUGCCGGUCCCAAGCCCGGAUAAAAGUGGAGGGGGCGG here?
The self-cleavage was 0.172.

With AUCAUUGCCAAUGCCGGUCCCAAGCCCGGAUAAAAGUGGAGGGGGCGG as the variant, how does the self-cleavage read?
Its self-cleavage is 0.448.

Which self-cleavage does the source give for AUCAAUGCCAAUGCCGGUCCCAAGCCCGGAUAAAAGUGGAGGGGGCGG here?
The self-cleavage was 0.13.

Which self-cleavage does the source give for AUCACUGCCAAUGCCGGUCCCAAGCCCGGAUAAGAGUGGAGGGGGCGG here?
Its self-cleavage is 0.292.

Which self-cleavage does the source give for AUCACUGCCACUGCCGGUCCCAAGCCCGGAUAAAAGUGGAGGGGGCGG here?
The self-cleavage was 0.309.

With AUCACUGCCAUUGCCGGUCCCAAGCCCGGAUAAAAGUGGAGGGGGCGG as the variant, how does the self-cleavage read?
The self-cleavage was 0.75.

With AGCACUGCCAAUGCCGGUCCCAAGCCCGGAUAAAAGCGGAGGGGGCGG as the variant, how does the self-cleavage read?
The self-cleavage was 0.0955.

With AGCACUGCCAAUGCCGGUCCCAAGCCCGGAAAAAAGUGGAGGGGGCGG as the variant, how does the self-cleavage read?
The self-cleavage was 0.328.

Which self-cleavage does the source give for AGCACUGCCAAUGCCGGUCCCAAGCCCGGAGAAAAGUGGAGGGGGCGG here?
The self-cleavage was 0.324.

For AGCACUGCCAAUGCCGGUCCCAAGCCCGGACAAAAGUGGAGGGGGCGG, which self-cleavage is on record?
The self-cleavage was 0.3.

Which self-cleavage does the source give for AUCACUGCCAAUGCCGGUCCCAAGCCCGGAUAAAAGUGGGGGGGGCGG here?
Its self-cleavage is 0.163.

For AGCACAGCCAAUGCCGGUCCCAAGCCCGGAUAAAAGUGGAGGGGGCGG, which self-cleavage is on record?
Its self-cleavage is 0.192.

For AUCACUGCCAAUGCCGGUCCCGAGCCCGGAUAAAAGUGGAGGGGGCGG, which self-cleavage is on record?
Its self-cleavage is 0.0815.

For AUCACUGCCAAUGCCGGUCCCCAGCCCGGAUAAAAGUGGAGGGGGCGG, which self-cleavage is on record?
The self-cleavage was 0.311.

Which self-cleavage does the source give for AUUACUGCCAAUGCCGGUCCCAAGCCCGGAUAAAAGUGGAGGGGGCGG here?
Its self-cleavage is 0.221.

With AUGACUGCCAAUGCCGGUCCCAAGCCCGGAUAAAAGUGGAGGGGGCGG as the variant, how does the self-cleavage read?
Its self-cleavage is 0.113.

For AUAACUGCCAAUGCCGGUCCCAAGCCCGGAUAAAAGUGGAGGGGGCGG, which self-cleavage is on record?
Its self-cleavage is 0.077.

For AUCUCUGCCAAUGCCGGUCCCAAGCCCGGAUAAAAGUGGAGGGGGCGG, which self-cleavage is on record?
Its self-cleavage is 0.0802.

Which self-cleavage does the source give for AUCGCUGCCAAUGCCGGUCCCAAGCCCGGAUAAAAGUGGAGGGGGCGG here?
The self-cleavage was 0.413.

Which self-cleavage does the source give for AGCACUGCCAAUGCCGGUCCCAAGCCCGGAUAAAAGUGGAGGGGCCGG here?
The self-cleavage was 0.0901.

With AGCACUGCCAAUGCCGGUCCCAAGCCCGGAUAAAAGUGUAGGGGGCGG as the variant, how does the self-cleavage read?
Its self-cleavage is 0.122.

For AGCACUGCCAAUGCCGGUCCCAAGCCCGGAUAAAAGUGCAGGGGGCGG, which self-cleavage is on record?
Its self-cleavage is 0.0951.
